Experimental data from publication PMC4877379.
Where a chain is given by its changes, count along the chain named.

Biological target: T1, CodY (B. cereus INRA C3) (Bacillus cereus INRA C3) (UniProt Q819X8)
T1 sequence: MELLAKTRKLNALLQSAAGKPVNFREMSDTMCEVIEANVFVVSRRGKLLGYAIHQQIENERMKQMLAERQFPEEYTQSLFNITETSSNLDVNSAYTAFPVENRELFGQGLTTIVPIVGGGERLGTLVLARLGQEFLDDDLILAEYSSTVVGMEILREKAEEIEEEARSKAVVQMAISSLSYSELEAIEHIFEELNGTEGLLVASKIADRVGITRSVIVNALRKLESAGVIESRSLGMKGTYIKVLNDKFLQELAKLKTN
Experiment: EMSA

Row | Substance | Kd [nM]
1 | ATCCGAATTCTGTATATGCTATGCATAATTGCATACGGGGTTAAAAATTATATCAATATAATTTTACCGGTTGTTTGCAAGTAGTGTTTTCTGTTGTGATATGTAGATATTTCAATCGATAAAGTGAATCGGATTATATTTTGAAATAAGGACATGAAAGCTTGAAAATAAAGGGAATGAAAATACTTCTTTACGTTATATAAACAGCTGTGTTTAAATGACCTTACAGTACAAAACTTATATGAAAACAAAACGAAATTTCATATTTACGTATGTTGTTTGGTTTAAAATGAATAATATTTTTATGTAATATATTCACTGTGTGAATGTGGGAATTTCGATGAAATAGAAAATTTATACAATATTATTCATACTAAACACATATGAAAAGTTTTATAACAATAAGTAAGTACTGTAGCAATAACAGTTGGGAGAGATGGTTCATACATAGATCACGGTGAGAACGTTCTCTATTTTAACCATCTCAAATTATGGGCAAGAAAATAGAATAATAAAATGCGATAGTAATAGTTGCTAATACATAGGAGGAGTTAAAGTGGATCCGACT (double strand) [Pnhe INRA C3] | 125
2 | AATAATGATATTAGGATGTTTTGTGAAAAAATCAACAATATAACATATATTACTAAATATATCTACATTTTATGCAATTATACATAACTAAATAAAGGTAAAAAAGTATAAAAAGACCTATTATATTATTCTATAAGTATTTTTTCTAAAATAAAATTTCTCGGTTGAGCTAAAATAGTTATTTTTAACCGTATACACATTAATTTGTAATCATTACAATTACAGAAATGAAATTTACGGATAACTATATTTGTATAATTTTTTTCGGTTCATATTTTTATTTAACAGTAAATTATCGATCGTAATC (double strand) [Phbl-1] | 700
3 | CAAGTTTGTAATAAACGTGTTCTAAGTTTCTGCATAACAAAAGTGAAGTTATTCCGCAATAAAAGTATAAGCGATGTACAGTATAATTTTACCTTTTTTAGTCTAGTAAGGAGTTTGCTGATAAAACTAAGAGTAATATTATTAAATTTAAATTAAACAATGTTATGGCAAGATTAACTGTAAGCATTGGTTTATTGATTCTCGCGGTTCTGTAAGTTAAACCGCAATTCTAGGGAAGAATTACACATTTACTATTCATAGGGTGCTTGATTCAAATATAGTTAATAAATTTTTGTTATTTATATTTGAAAAAATAGAGTATCGAAGTGAGAGG (double strand) [Phbl-4] | 700
4 | PinhA1 INRA C3 | 250
5 | PcytK-2 | > 1000
6 | TCTAGTAAGGAGTTTGCTGATAAAACTAAGAGTAATATTATTAAATTTAAATTAAACAATGTTATGGCAAGATTAACTGTAAGCATTGGTTTATTGATTCTCGCGGTTCTGTAAGTTAAACCGCAATTCTAGGGAAGAATTACACATTTACTATTCATAGGGTGCTTGATTCAAATATAGTTAATAAATTTTTGTTATTTATATTTGAAAAAATAGAGTATCGAAGTGAGAGGTAAGTAAAATCCTTACATTCTATTAGAAGTAAAAAATAACGATATTATCCTATCTGAAAGATTTCTCCTTCTTAATCAGTTTACAAAGAGAGAGGTCATACAAGTTATATGAATTAAGTTATAAAAACAATGGTAAAGGAGTGTACGGAAT (double strand) [Phbl-3] | 700
7 | AAATTATCGATCGTAATCGACAAAATTTTTCTATTTACGCATTAAAAATTTAATGTTTTAATGAACAACATAACTGGTATGACCAGACAGAAAGGATAAGGTTACGCTAATAGGAATTATAGTGAAGTTGTAAGTAACATTATGTTGAAAATATTTTTCGAATAGTCTATTTATTTACAAGAGGTCAAGAATCAAGTTTGTAATAAACGTGTTCTAAGTTTCTGCATAACAAAAGTGAAGTTATTCCGCAATAAAAGTATAAGCGATGTACAGTATAATTTTACCTTTTTTAGTCTAGTAAGGAGTTTGCTGA (double strand) [Phbl-2] | 250

Biological target: T2, CodY (B. cytotoxicus CVUAS 2833) (Bacillus cytotoxicus CVUAS 2833) (UniProt A7GRF8)
T2 sequence: T1 sequence with S78N, I82V, A94E, R103K, E104D, Q133R, S147A, Q251H
Experiment: EMSA

Row | Substance | Kd [nM]
8 | PcytK-1 | > 1000
